Data on four substances can be found in patent EP1212366B1.

Assay [1] deals with human FcγRI (CD64) on cells (human) (UniProt P12314). Kind of assay: cell-based or functional assay.
The target is the same in assay [2]. The assay can be described thus: flow cytometry, fluorescein-conjugated antibody on monocytes. (In general: A flow cytometer gives signals particle by particle.)
The target in assay [3] is soluble fusion protein of the extracellular domain of human FcγRI and human IgM heavy chain (sFcγRI-µ) (human) (UniProt P12314). The assay can be described thus: ELISA on captured sFcγRI-µ, against a nonspecific human IgG1 mAb. In general terms: In an ELISA, binding on a coated surface is turned into a signal by an enzyme label.

For the substance “M22 Fab' x 32.2 Fab' x M22 Fab' chemically linked trivalent antibody”, the FcγRI expression on monocytes in whole blood (modulation assay) (% of the level prior to BsAb treatment) in assay [1] is 50.

For the substance “chemically linked M22 Fab' multimer M22 F(ab')3+”, the human CD64 surface expression on macrophages of CD64-transgenic mice (M32.2-FITC) in assay [1] is less than 50 % reduction.

Turning to “humanized anti-FcγRI antibody H22 (KOL VH/REI Vκ mAb)”, the antibody sites per cell (antibody sites per cell) in assay [2] worked out at 10500. In addition, in assay [3], the percent of binding via the Fv portion was more than 95%.

“murine anti-FcγRI monoclonal antibody M22”: the antibody sites per cell (antibody sites per cell) in assay [2] is 10000.
